This is an account of results in patent US10767162B2, “Methods for differentiation” (PRESIDENT AND FELLOWS OF HARVARD COLLEGE, priority 2014, dated 2020).

Assay [1] has as its system ES cell line that constitutively over-expressed the transcription factor MyoD. Kind of assay: Skeletal muscle differentiation efficiency of MyoD ES cells, myosin heavy chain (MHC) immunostaining. It is filed as cell-based, mouse. From the text:
FIG. 2A depicts a differentiation time course of ES cells to skeletal muscle when exposed to low serum vs high serum conditions. […] LIF was removed at Day 0. Low serum was then initiated at different starting times beginning with Day 0. Cells were then fixed and immunostained for myosin heavy chain (MHC) expression. Differentiating cells in high serum were continuously split to prevent overgrowth. FIG. 2B depicts a comparison of differentiation efficiency generated by two types of defined media (N2B27) and 20% KOSR, low serum media (2% horse serum+insulin), and high serum media (15% FBS). Cells were removed from standard ES media (LIF and serum) and incubated in the specified media starting from Day 0 to Day 4. Continuation of LIF (1000 U/ml) or addition of Bmp4 (10 ng/ml) results in a strong block to muscle differentiation.
To probe the effect of the cell cycle on differentiation an ES cell line was used that constitutively over-expressed the transcription factor MyoD driven off an EF1alpha promoter (5) activated by tamoxifen-induced Cre recombination. […]
However any implication of growth factor effects through the manipulation of serum can be fraught with the inconsistencies and complexities of serum. […] Use of both media in ES cells led to activation of MyoD and terminal myogenesis similar to the 2% low serum media, with some improvement (FIG. 2B; assessed on Day 4). […]

For assay [2], the system named is iNIL ES cells (Ngn2, Isl1, Lhx3). Kind of assay: Spinal motor neuron differentiation of iNIL ES cells, beta-3 tubulin (Tubb3) expression. The following applies: added back into growth factor-free media. In kind it is cell-based, mouse. From the text:
FIGS. 11A-11B depict spinal motor neurons. […] FIG. 11B depicts a time course of gene expression for neuronal lineage factors and motor neuron terminal differentiation markers in growth factor-free (N2B27) media.
To generate spinal motor neurons, a mouse ES cell line that overexpressed a combination of three transcription factor lineage specifiers (Ngn2, Isl1, Lhx3) was used. This combination was previously shown to specify spinal motor neuron identity (4). These iNIL cells, as they are also called, upon doxycycline stimulation express the three transcription factors from a single open reading frame coupled by 2A peptides. Growth factor withdrawal was used as the method of cell cycle manipulation in the experiments described in this Example.
As expected from the results on skeletal muscle myotubes, neurons rapidly formed from ES cells upon switching to different types of growth factor-free media. […] Tubb3 expression was confirmed by immunostaining. When either of the ES cell growth factors LIF or Bmp4 were added back into growth factor-free media, there was a strong block on neuronal differentiation.
ESC differentiation. Twenty-four hours before starting, ESCs are trypsinized and spread out as monolayer onto gelatin in standard ES media. […]
(§1) RNA isolation and qPCR. […] Quantitative PCR was performed using Bio-rad's SYBR™ green Supermix. […]

The subject of assay [3] is Hnf4α-overexpressing ES cells. Kind of assay: Hepatoblast-like differentiation of Hnf4α-overexpressing ES cells, alphafetoprotein (AFP) expression. In kind it is cell-based. The following applies: added to growth factor-free media; day 4.
Text: FIGS. 13A-13B depict hepatoblast-like cells. […] Alpha-fetoprotein mRNA expression after 4 days in media of different growth factor content. FIG. 13B depicts a time course of gene expression for hepatic lineage factors and hepatocyte markers in growth factor-free (N2B27) media.
One essential lineage specifying factor for hepatocytes is hepatic nuclear factor 4α (Hnf4α)(6). Switching of Hnf4α-overexpressing ES cells to growth factor-free or growth factor-reduced media led to the activation of a subset of hepatic genes. At day 0, LIF and doxycycline were removed and the media was either switched or kept to 15% FBS. By day 4, there were high levels of alphafetoprotein (AFP) that could be detected in the cells differentiated in the growth factor-free or growth factor-reduced media and less than 10% the level of AFP in cells in 15% FBS (FIG. 13A and FIG. 16). AFP expression could be confirmed by immunostaining. While this activation by growth factor withdrawal was similar to the pattern seen in previous cell types, there was an additional interesting point of variation compared to other lineages examined so far. […] Albumin production was also detected, as was Sox17, Pparα, Cdh3, Tbx3, Krt18, Hhex, Lrh1, C/EBPα, Hnf1a, and Hnf1b. […]
as §1

B1: Bmp4: ES cell growth factor, promotes Id protein family expression (protein, UniProt P21275 293-408, looked up)
Bone morphogenetic protein 4: SPKHHPQRSRKKNKNCRRHSLYVDFSDVGWNDWIVAPPGYQAFYCHGDCPFPLADHLNSTNHAIVQTLVNSVNSSIPKACCVPTELSAISMLYLDEYDKVVLKNYQEMVVEGCGCR
As to B1, the “MHC+ nuclei (differentiation) when added back to N2B27” value in assay [1] (LIF 1000 U/ml or Bmp4 10 ng/ml added back to N2B27, Day 4) stood at 0%. Further, the muscle differentiation entry in assay [1] (continuation of LIF (1000 U/ml) or addition of Bmp4 (10 ng/ml), Day 0 to Day 4) is on record as “strong block”. For the same molecule, the neuronal differentiation result in assay [2] was “strong block”. For the same molecule, the AFP expression entry in assay [3] is “did not reduce”.
